In article doi:10.1101/2021.08.18.456755:

Key:
[1] = biological target: (His)6-tagged Pf-Ubc9 (Plasmodium falciparum); assay: pull-down
[2] = biological target: Hs-Ubc9 (human E2 conjugating enzyme Ubc9), untagged (human) (UniProt P63279); assay: ITC
[3] = biological target: Pf-Ubc9 (Plasmodium falciparum E2 conjugating enzyme), untagged (Plasmodium falciparum); assay: ITC
[4] = biological target: (His)6-tagged Hs-Ubc9 (human) (UniProt P63279); assay: pull-down
[5] = biological target: Hs-Ubc9 (human E2 conjugating enzyme Ubc9), untagged (human) (UniProt P63279)
[6] = biological target: Pf-SUMO D90A mutant, untagged (ITC, SPR, NMR) (Plasmodium falciparum); assay: SPR

For “Hs-SUMO1 as prepared for pull-down and SUMOylation assays (GST-tagged preparation) (from UniProt P63165 1-97) (natural protein)”, the relative binding affinity (quantified pull-down) [1] was 12%.
Work on “Pf-SUMO (Plasmodium falciparum SUMO, mature form Pf-SUMO-GG), untagged (natural protein)” yielded a Kd [2] of 27.4 µM and a Kd [3] of 4.05 µM.
“Pf-SUMO D68A mutant (pull-down preparation) (natural protein)” gave a reduction of binding against Pf-SUMO wild type (quantified pull-down) [4] of 90%.
With “Pf-SUMO D68K mutant (pull-down preparation) (natural protein)” the reduction of binding against Pf-SUMO wild type (quantified pull-down) [4] was 90%.
Work on “Pf-SUMO D90A mutant (pull-down preparation) (natural protein)” yielded a reduction of binding against Pf-SUMO wild type (quantified pull-down) [4] of 90%.
With “Pf-SUMO D90A mutant, untagged (ITC, SPR, NMR) (natural protein)” the Kd [3] was 2.5 µM and the fold change of the dissociation constant against the wild type [5] was 4 fold.
In the case of “Pf-SUMO D90K mutant (pull-down preparation) (natural protein)”, the reduction of binding against Pf-SUMO wild type (quantified pull-down) [4] is reported as 90%.
With “Pf-SUMO wild type as prepared for pull-down and SUMOylation assays (GST-tagged preparation) (natural protein)” the relative affinity (quantified pull-down) [4] was 67%.
“Pf-Ubc9 (Plasmodium falciparum E2 conjugating enzyme), untagged” showed a Kd [6] of 3.02 µM.
